Laboratory results from patent US20220411483A1 (Chugai, published 2022).
Positions count from the first letter of the chain named.

T1: FcγRIIa R type extracellular domain with C-terminal His tag (human, UniProt P12318 34-217)
T1 construct: extracellular domain; also called FcgRIIaR; not shown: His tag at the C terminus
T1 sequence (looked up): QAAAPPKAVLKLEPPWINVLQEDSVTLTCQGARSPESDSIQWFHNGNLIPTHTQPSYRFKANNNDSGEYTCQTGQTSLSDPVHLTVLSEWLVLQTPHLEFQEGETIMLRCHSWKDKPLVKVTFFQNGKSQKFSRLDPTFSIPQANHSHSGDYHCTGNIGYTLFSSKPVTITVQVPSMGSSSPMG

T2: FcγRIIb extracellular domain with C-terminal His tag (human, UniProt P31994 43-217)
T2 construct: extracellular domain; also called FcgRIIb; not shown: His tag at the C terminus
T2 sequence (looked up): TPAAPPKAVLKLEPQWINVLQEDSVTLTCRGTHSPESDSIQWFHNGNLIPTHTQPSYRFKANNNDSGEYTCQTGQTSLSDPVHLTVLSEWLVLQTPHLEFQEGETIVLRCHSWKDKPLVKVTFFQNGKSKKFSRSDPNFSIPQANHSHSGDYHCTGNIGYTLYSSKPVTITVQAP

T3: FcgRIIb (human, UniProt P31994 43-217)
T3 construct: extracellular domain; also called FcγRIIb
T3 sequence (looked up): T2 sequence (looked up)

T4: FcgRIIaR (human, UniProt P12318 34-217)
T4 construct: extracellular domain; also called FcγRIIa R type; FcγRIIa (R type)
T4 sequence (looked up): T1 sequence (looked up)

T5: human FcγRIIa R type extracellular domain with C-terminal His tag (human, UniProt P12318 34-217)
T5 construct: extracellular domain; also called FcgRIIaR
T5 sequence (looked up): T1 sequence (looked up)

T6: human FcγRIIa H type extracellular domain with C-terminal His tag (human, UniProt P12318 34-217)
T6 construct: extracellular domain; also called FcgRIIaH
T6 sequence (looked up): T1 sequence (looked up) with R134H

T7: human FcγRIIb extracellular domain with C-terminal His tag (human, UniProt P31994 43-217)
T7 construct: extracellular domain; also called FcgRIIb
T7 sequence (looked up): T2 sequence (looked up)

B1: IL6R-BP532/IL6R-L (antibody, human IgG1, kappa, name in EU numbering)
heavy: QVQLQESGPGLVKPSETLSLTCAVSGHSISHDHAWSWVRQPPGEGLEWIGFISYSGITNYNPSLQGRVTISRDNSKNTLYLQMNSLRAEDTAVYYCARSLARTTAMDYWGEGTLVTVSSASTKGPSVFPLAPSSKSTSGGTAALGCLVKDYFPEPVTVSWNSGALTSGVHTFPAVLQSSGLYSLSSVVTVPSSSLGTQTYICNVNHKPSNTKVDKKVEPKSCDKTHTCPPCPAPDLLGDDSVFLFPPKPKDTLMISRTPEVTCVVIDVSEEDGEVKFNWYVDGVEVHNAKTKPREEQDNSTYRVVSVLTVLHQDWLNGKEYKCKVSNKALPRPIEKTISKAKGQPREPQVYTLPPSRDELTKNQVSLTCLVKGFYPSDIAVEWESNGQPENNYKTTPMVLDSDGSFFLYSKLTVDKSRWQQGNVFSCSVMHEALHNHYTQESLSLSP
light: not shown
notes: human IgG1
B2: IL6R-BP555/IL6R-L (antibody, human IgG1, kappa, name in EU numbering)
heavy: B1 heavy with D235E, S269A, E274D, M398P
light: not shown
notes: human IgG1
B3: IL6R-BP552/IL6R-L (antibody, human IgG1, kappa, name in EU numbering)
heavy: B1 heavy with S269A, E274D, M398P
light: not shown
notes: human IgG1
B4: IL6R-BP561/IL6R-L (antibody, human IgG1, kappa, name in EU numbering)
heavy: B1 heavy with I266V, E270D, E274D, M398P
light: not shown
notes: human IgG1
B5: IL6R-BP553/IL6R-L (antibody, human IgG1, kappa, name in EU numbering)
heavy: B1 heavy with S269A, E274D, D298Y, M398P
light: not shown
notes: human IgG1
B6: IL6R-BP537/IL6R-L (antibody, human IgG1)
heavy: B1 heavy with D235E, S269G, D298Y, M398P
light: not shown
notes: human IgG1
B7: IL6R-BP535/IL6R-L (antibody, human IgG1, kappa, name in EU numbering)
heavy: B1 heavy with S269G, A329G
light: not shown
notes: human IgG1
B8: IL6R-BP534/IL6R-L (antibody, human IgG1, kappa, name in EU numbering)
heavy: B1 heavy with M398L
light: not shown
notes: human IgG1
B9: IL6R-G1dGSS/IL6R-L (antibody, human IgG1, kappa)
heavy: QVQLQESGPGLVKPSETLSLTCAVSGHSISHDHAWSWVRQPPGEGLEWIGFISYSGITNYNPSLQGRVTISRDNSKNTLYLQMNSLRAEDTAVYYCARSLARTTAMDYWGEGTLVTVSSASTKGPSVFPLAPSSKSTSGGTAALGCLVKDYFPEPVTVSWNSGALTSGVHTFPAVLQSSGLYSLSSVVTVPSSSLGTQTYICNVNHKPSNTKVDKKVEPKSCDKTHTCPPCPAPELLGGPSVFLFPPKPKDTLMISRTPEVTCVVVDVSHEDPEVKFNWYVDGVEVHNAKTKPREEQYNSTYRVVSVLTVLHQDWLNGKEYKCKVSNKGLPSSIEKTISKAKGQPREPQVYTLPPSRDELTKNQVSLTCLVKGFYPSDIAVEWESNGQPENNYKTTPPVLDSDGSFFLYSKLTVDKSRWQQGNVFSCSVMHEALHNHYTQKSLSLSP
light: not shown
B10: IL6R-P747/IL6R-L (antibody, human IgG1, kappa)
heavy: B9 heavy with L237F, G239Q, P240D, F243M, Y298E, K324E, G329A, S332A, S333P
light: not shown
B11: IL6R-P556/IL6R-L (antibody, human IgG1, kappa)
heavy: B1 heavy with I266V, E270D, D298Y, R332A, M398P, E441K
light: not shown
B12: IL6R-P729/IL6R-L (antibody, human IgG1, kappa)
heavy: B9 heavy with L237F, G239Q, P240D, F243M, H270P, Y298E, G329A, S332A, S333P
light: not shown
B13: IL6R-P744/IL6R-L (antibody, human IgG1, kappa)
heavy: B9 heavy with P240D, S300A, K324A, G329A, S332A, S333P
light: not shown
B14: IL6R-P588/IL6R-L (antibody, human IgG1, kappa)
heavy: B1 heavy with D235E, D239G, S269A, D298Y, R332A, M398P, E441K
light: not shown
B15: IL6R-P559/IL6R-L (antibody, human IgG1, kappa)
heavy: B1 heavy with D235E, I266V, D298Y, R332A, M398P, E441K
light: not shown
B16: IL6R-P737/IL6R-L (antibody, human IgG1, kappa)
heavy: B9 heavy with G239Q, P240D, F243M, H270P, Y298E, S326H, G329A, S332H, S333P
light: not shown
B17: IL6R-P745/IL6R-L (antibody, human IgG1, kappa)
heavy: B9 heavy with P240D, S300A, K324E, G329A, S332A, S333P
light: not shown
B18: IL6R-P691/IL6R-L (antibody, human IgG1, kappa)
heavy: B9 heavy with L237F, G239Q, P240D, F243M, Y298E, G329A, S332A, S333P
light: not shown
B19: IL6R-P733/IL6R-L (antibody, human IgG1, kappa)
heavy: B9 heavy with L237F, G239Q, P240D, F243M, H270P, Y298E, S326H, G329A, S332A, S333P
light: not shown
B20: IL6R-P746/IL6R-L (antibody, human IgG1, kappa)
heavy: B9 heavy with L237F, G239Q, P240D, F243M, Y298E, K324A, G329A, S332A, S333P
light: not shown
B21: IL6R-P727/IL6R-L (antibody, human IgG1, kappa)
heavy: B9 heavy with G239Q, P240D, F243M, H270P, Y298E, G329A, S332H, S333P
light: not shown
B22: IL6R-P562/IL6R-L (antibody, human IgG1, kappa)
heavy: B1 heavy with I266V, D298Y, R332A, M398P, E441K
light: not shown
B23: IL6R-P587/IL6R-L (antibody, human IgG1, kappa)
heavy: B1 heavy with D239G, S269A, D298Y, R332A, M398P, E441K
light: not shown
B24: IL6R-P743/IL6R-L (antibody, human IgG1, kappa)
heavy: B9 heavy with P240D
light: not shown
B25: IL6R-P555/IL6R-L (antibody, human IgG1, kappa)
heavy: B1 heavy with D235E, I266V, E270D, D298Y, R332A, M398P, E441K
light: not shown
B26: IL6R-P587/IL6R-L (antibody, human IgG1, kappa)
heavy: B1 heavy with D239G, S269A, D298Y, R332A, M398P, E441K
light: not shown

Molecular target: T1, FcγRIIa R type extracellular domain …
Test: SPR, antibody captured, FcgR analyte

| Binder | Kd [µM] |
| --- | --- |
| B1 | 0.094 |
| B2 | 0.16 |
| B3 | 0.097 |
| B4 | 0.51 |
| B5 | 0.086 |
| B6 | 0.27 |
| B7 | 0.092 |
| B8 | 0.091 |

Molecular target: T8, FcγRIa extracellular domain with C-terminal His tag (human, UniProt P12314 16-292)
T8 construct: also called FcgRIa; CD64; not shown: His tag at the C terminus
T8 sequence (P12314 16-292): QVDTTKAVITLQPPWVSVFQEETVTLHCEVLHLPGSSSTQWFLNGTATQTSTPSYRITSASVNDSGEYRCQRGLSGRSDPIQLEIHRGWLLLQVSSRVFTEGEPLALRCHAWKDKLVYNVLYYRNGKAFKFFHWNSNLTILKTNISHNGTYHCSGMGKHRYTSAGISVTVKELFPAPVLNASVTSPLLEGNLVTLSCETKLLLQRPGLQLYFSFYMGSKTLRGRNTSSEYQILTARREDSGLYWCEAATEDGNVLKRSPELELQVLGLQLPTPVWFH
Test: SPR, antibody captured, FcgR analyte

| Binder | Kd [µM] |
| --- | --- |
| B1 | 0.012 |
| B2 | 0.0094 |
| B3 | 0.0032 |
| B4 | 0.0094 |
| B5 | 0.0034 |
| B6 | 0.029 |
| B7 | 0.011 |
| B8 | 0.0093 |

Molecular target: T2, FcγRIIb extracellular domain with …
Test: SPR, antibody captured, FcgR analyte

| Binder | Kd [µM] |
| --- | --- |
| B1 | 0.0032 |
| B2 | 0.0041 |
| B3 | 0.0026 |
| B4 | 0.018 |
| B5 | 0.0031 |
| B6 | 0.0069 |
| B7 | 0.004 |
| B8 | 0.003 |

Molecular target: T9, human complement C1q (human, UniProt P02745 23-245; P02746 28-253; P02747 29-245)
T9 construct: Bought (PROSPEC or Calbiochem); also called human C1q
T9 sequence (P02745 23-245 limits assumed, chain 1 of 3): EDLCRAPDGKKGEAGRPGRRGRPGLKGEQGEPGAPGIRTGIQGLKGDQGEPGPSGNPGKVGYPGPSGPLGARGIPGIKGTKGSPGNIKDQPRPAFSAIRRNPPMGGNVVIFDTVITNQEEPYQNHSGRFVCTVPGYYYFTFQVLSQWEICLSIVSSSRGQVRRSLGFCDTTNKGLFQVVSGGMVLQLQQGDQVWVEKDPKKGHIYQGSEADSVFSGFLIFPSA
T9 sequence (P02746 28-253 limits assumed, chain 2 of 3): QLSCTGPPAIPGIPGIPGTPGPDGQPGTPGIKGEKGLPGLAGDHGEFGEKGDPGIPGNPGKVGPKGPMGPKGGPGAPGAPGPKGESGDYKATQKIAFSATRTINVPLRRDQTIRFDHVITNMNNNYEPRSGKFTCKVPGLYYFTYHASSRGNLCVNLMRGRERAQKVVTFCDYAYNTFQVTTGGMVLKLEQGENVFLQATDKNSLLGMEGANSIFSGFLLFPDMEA
T9 sequence (P02747 29-245 limits assumed, chain 3 of 3): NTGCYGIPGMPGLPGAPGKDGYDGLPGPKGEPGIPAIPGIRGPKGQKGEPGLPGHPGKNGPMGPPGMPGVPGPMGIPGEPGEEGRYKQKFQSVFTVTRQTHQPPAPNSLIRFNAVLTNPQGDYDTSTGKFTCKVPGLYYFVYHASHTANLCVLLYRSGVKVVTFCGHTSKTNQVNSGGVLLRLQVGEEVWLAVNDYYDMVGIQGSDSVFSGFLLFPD
Test: SPR, C1q bound per antibody captured on Protein L
Method: The interaction between an antibody and human C1q was analyzed using Biacore T200 (GE Healthcare). HBS-EP+ (GE Healthcare) was used as the running buffer, and the measurement temperature was set at 25° C. Chips produced by immobilizing Protein L (ACTIGEN or BioVision) onto Series S sensor Chip CM4 (GE Healthcare) by amine coupling were used.
The antibodies of interest were captured onto these sensor chips, and allowed to interact with human complement C1q (PROSPEC or Calbiochem) diluted in the running buffer. The amount of antibody binding was determined, and comparisons were made among the antibodies. However, since the amount of C1q bound depends on the amount of captured antibodies, corrected values obtained by dividing the amount of C1q bound by the amount of each antibody captured were compared. Furthermore, by reaction with 10 mM glycine-HCl, pH 1.5, the antibodies captured onto the sensor chips were washed, and the sensor chips were recycled and reused.

| Binder | Amount of C1q-binding when that for G1d is Defined as 100 [G1d=100] |
| --- | --- |
| B9 | 15.2 |
| B10 | 13.7 |
| B11 | 33.5 |
| B12 | 22.8 |
| B13 | 13.6 |
| B14 | 108 |
| B15 | 34.1 |
| B16 | 45.7 |
| B17 | 20.9 |
| B18 | 21 |
| B19 | 23 |
| B20 | 1.4 |
| B21 | 35.5 |
| B22 | 29.4 |
| B23 | 132 |
| B24 | 20.9 |

Molecular target: T3, FcgRIIb
Test: SPR, amount bound per captured antibody

| Binder | Relative FcgRIIb-binding Activity [IL6R-G1d/IL6R-L=100] |
| --- | --- |
| B9 | 115 |
| B10 | 98.1 |
| B11 | 294 |
| B12 | 100 |
| B13 | 81.4 |
| B25 | 305 |
| B14 | 346 |
| B15 | 319 |
| B16 | 78.7 |
| B17 | 95.4 |
| B18 | 119 |
| B19 | 84.8 |
| B20 | 57.5 |
| B21 | 93 |
| B22 | 311 |
| B23 | 350 |
| B24 | 69.4 |

Molecular target: T4, FcgRIIaR
Test: SPR, amount bound per captured antibody

| Binder | Relative FcgRIIaR-binding Activity [IL6R-G1d/IL6R-L=100] |
| --- | --- |
| B9 | 98.5 |
| B10 | 10 |
| B11 | 81.7 |
| B12 | 9 |
| B13 | 11.1 |
| B25 | 83.8 |
| B14 | 100 |
| B15 | 89.4 |
| B16 | 8 |
| B17 | 13.7 |
| B18 | 10.8 |
| B19 | 8.1 |
| B20 | 7 |
| B21 | 9.7 |
| B22 | 89.7 |
| B23 | 106 |
| B24 | 13.5 |

Molecular target: T5, human FcγRIIa R type extracellular …
Test: SPR, KD of IL6R-G1d/IL6R-L divided by KD of variant

| Binder | Relative FcgRIIaR-binding Activity |
| --- | --- |
| B26 | 0.92 |

Molecular target: T10, human FcγRIa extracellular domain with C-terminal His tag (human, UniProt P12314 16-292)
T10 construct: Whole entry named; also called FcgRIa
T10 sequence (P12314 16-292): as the sequence (P12314 16-292) above
Test: as above

| Binder | Relative FcgRIa-binding Activity |
| --- | --- |
| B26 | 0.451 |

Molecular target: T6, human FcγRIIa H type extracellular …
Test: as above

| Binder | Relative FcgRIIaH-binding Activity |
| --- | --- |
| B26 | 0.044 |

Molecular target: T7, human FcγRIIb extracellular domain with …
Test: as above

| Binder | Relative FcgRIIb-binding Activity |
| --- | --- |
| B26 | 75 |

Molecular target: T11, human FcγRIIIa V type extracellular domain with C-terminal His tag (human, UniProt P08637 17-208)
T11 construct: extracellular domain; also called FcgRIIIaV
T11 sequence (P08637 17-208 F176V): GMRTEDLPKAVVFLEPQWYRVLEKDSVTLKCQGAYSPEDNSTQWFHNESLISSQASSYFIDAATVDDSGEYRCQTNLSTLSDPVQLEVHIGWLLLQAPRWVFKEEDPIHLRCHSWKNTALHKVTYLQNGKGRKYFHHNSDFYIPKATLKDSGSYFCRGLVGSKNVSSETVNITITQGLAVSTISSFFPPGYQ
Test: as above

| Binder | Relative FcgRIIIaV-binding Activity |
| --- | --- |
| B26 | 0.012 |
